Measurements from patent US20250066476A1 (TENEOONE, published 2025).
Residue numbers refer to the chain shown, from its start.

T1: human B-cell maturation antigen (BCMA) (human, UniProt Q02223 1-54, limits assumed)
T1 construct: also called CD269; TNFRSF17
T1 sequence (looked up): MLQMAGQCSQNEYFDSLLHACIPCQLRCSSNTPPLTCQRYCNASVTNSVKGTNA

B1: anti-PSMA heavy-chain antibody clone ID 346172 (antibody, V domains shown)
VH: QLQLQESGPGLVKPSETLSLTCTVSGGSISSSSYYWGWIRQPPGKGLEWIGSIDYSGYTYYNPSLKSRVTISVDTSKNQFSLKLSSVTAADTAVYNCARHKAATADFDYRGQGTLVTVSS
notes: heavy chain-only antibody (UniAb/HCAb)
B2: anti-PSMA heavy-chain antibody clone ID 326109 (antibody, V domains shown)
VH: B1 VH with S32N, P42S, I50L, D54Y, Y55D, Y58S, Y60H, T70I, V73G, N96Y
notes: as for B1
B3: anti-PSMA heavy-chain antibody clone ID 346165 (antibody, V domains shown)
VH: B1 VH with I53V, K66Q
notes: as for B1
B4: anti-PSMA heavy-chain antibody clone ID 346181 (antibody, V domains shown)
VH: B1 VH with S33N, Y35F, P42S
notes: as for B1
B5: anti-PSMA heavy-chain antibody clone ID 325920 (antibody, V domains shown)
VH: B1 VH with K66Q
notes: as for B1
B6: anti-PSMA heavy-chain antibody clone ID 325748 (antibody, V domains shown)
VH: QVQLVESGGGVVQPGRSLRLSCAASGFSFSSYGMHWVRQAPGKGLEGVAVIWYDGSNRYYADSVKGRFTISRDNSKNTLYLQMNSLRAEDTAVYYCAREPRIGYYYESSGYYSLDYRGQGTLVTVSS
notes: as for B1
B7: anti-PSMA heavy-chain antibody clone ID 325932 (antibody, V domains shown)
VH: B6 VH
notes: as for B1
B8: anti-PSMA heavy-chain antibody clone ID 345510 (antibody, V domains shown)
VH: B6 VH with G47W, R58K, L79M
notes: as for B1
B9: anti-PSMA heavy-chain antibody clone ID 326116 (antibody, V domains shown)
VH: B6 VH with S31R, W52S, R58K, N74Y, E107D, Y112D
notes: as for B1
B10: anti-PSMA heavy-chain antibody clone ID 345493 (antibody, V domains shown)
VH: B6 VH with S31R, G47W
notes: as for B1
B11: anti-PSMA heavy-chain antibody clone ID 345482 (antibody, V domains shown)
VH: B6 VH with N74S
notes: as for B1
B12: anti-PSMA heavy-chain antibody clone ID 345485 (antibody, V domains shown)
VH: B6 VH with S30R, G47W, R58K, L79M
notes: as for B1
B13: anti-PSMA heavy-chain antibody clone ID 325867 (antibody, V domains shown)
VH: B6 VH with S30R, G47W, R58K, N74Y, Y112D
notes: as for B1
B14: anti-PSMA heavy-chain antibody clone ID 345508 (antibody, V domains shown)
VH: B6 VH with L45P, G47W
notes: as for B1
B15: anti-PSMA heavy-chain antibody clone ID 345509 (antibody, V domains shown)
VH: B6 VH with V11L, R16G, R58K, L79M
notes: as for B1
B16: anti-PSMA heavy-chain antibody clone ID 345497 (antibody, V domains shown)
VH: B6 VH with S31R
notes: heavy chain-only antibody (UniAb/HCAb); also called HCAb 345497
B17: anti-PSMA heavy-chain antibody clone ID 325742 (antibody, V domains shown)
VH: B6 VH with G47W, R58K, N74Y, Y112D
notes: as for B1
B18: anti-PSMA heavy-chain antibody clone ID 345444 (antibody, V domains shown)
VH: B6 VH with S28T
notes: as for B1
B19: anti-PSMA heavy-chain antibody clone ID 345490 (antibody, V domains shown)
VH: B6 VH with V11L, Q13K, R16G
notes: as for B1
B20: anti-PSMA heavy-chain antibody clone ID 345443 (antibody, V domains shown)
VH: B6 VH with Y80F
notes: as for B1
B21: anti-PSMA heavy-chain antibody clone ID 345447 (antibody, V domains shown)
VH: B6 VH with W52S
notes: as for B1
B22: anti-PSMA heavy-chain antibody clone ID 345480 (antibody, V domains shown)
VH: B6 VH with G47W
notes: as for B1
B23: anti-PSMA heavy-chain antibody clone ID 345463 (antibody, V domains shown)
VH: B6 VH with S28I, S30R, L45P, G47W, R58K
notes: as for B1
B24: anti-PSMA heavy-chain antibody clone ID 326084 (antibody, V domains shown)
VH: B6 VH with E107D
notes: as for B1
B25: anti-PSMA heavy-chain antibody clone ID 326029 (antibody, V domains shown)
VH: B6 VH with S31R, G47W, W52S, R58K, I102V, S108T
notes: as for B1
B26: anti-PSMA heavy-chain antibody clone ID 345421 (antibody, V domains shown)
VH: B6 VH with G8V
notes: as for B1
B27: anti-PSMA heavy-chain antibody clone ID 345438 (antibody, V domains shown)
VH: B6 VH with L45P, G47W, R58K
notes: as for B1
B28: anti-PSMA heavy-chain antibody clone ID 326087 (antibody, V domains shown)
VH: B6 VH with S28I, S30R, L45P, G47W, R58K, E107D, Y112D
notes: as for B1
B29: anti-PSMA heavy-chain antibody clone ID 326027 (antibody, V domains shown)
VH: B6 VH with S30R, G47W, R58K, E107D, Y112D
notes: as for B1
B30: anti-PSMA heavy-chain antibody clone ID 325940 (antibody, V domains shown)
VH: B6 VH with S28I, S30R, L45P, G47W, R58K
notes: as for B1
B31: anti-PSMA heavy-chain antibody clone ID 326028 (antibody, V domains shown)
VH: B6 VH with S30R, G47W, W52S, R58K, N74Y, E107D, Y112D
notes: as for B1
B32: anti-PSMA heavy-chain antibody clone ID 345461 (antibody, V domains shown)
VH: B6 VH with S30T
notes: as for B1
B33: anti-PSMA heavy-chain antibody clone ID 345505 (antibody, V domains shown)
VH: B6 VH with S28T, S30I
notes: as for B1
B34: anti-PSMA heavy-chain antibody clone ID 325836 (antibody, V domains shown)
VH: B6 VH with S30R, G47W, R58K, N74Y, E107D, Y112D
notes: as for B1
B35: anti-PSMA heavy-chain antibody clone ID 345436 (antibody, V domains shown)
VH: B6 VH with S31R, R58K
notes: as for B1
B36: anti-BCMA heavy chain antibody clone ID 308837 (antibody, V domains shown)
VH: EVQLLESGGGLVQPGGSLRLSCAASGFTVSSYGMSWVRQAPGKGPEWVSGIRGSDGSTYYADSVKGRFTISRDNATNTLYLQMNSLRAEDTAVYYCAKQGGNDGPFDYRGQGTLVTVSS
notes: heavy chain-only antibody (UniAb)
B37: anti-BCMA heavy chain antibody clone ID 308806 (antibody, V domains shown)
VH: B36 VH with V29I, P45V, S57T, N74S, A75S, T76R, Y108H
notes: as for B36
B38: anti-BCMA heavy chain antibody clone ID 308912 (antibody, V domains shown)
VH: B36 VH with A40P, P45M, T76K
notes: as for B36
B39: anti-BCMA heavy chain antibody clone ID 308902 (antibody, V domains shown)
VH: B36 VH with A75S, T76K, G101E, Y108H
notes: as for B36
B40: anti-BCMA heavy chain antibody clone ID 308635 (antibody, V domains shown)
VH: B36 VH with P14A, A75S, T76K, Y95H, G101E
notes: as for B36
B41: anti-BCMA heavy chain antibody clone ID 308636 (antibody, V domains shown)
VH: B36 VH with L4V, A40P, P45M, Y59F
notes: as for B36

The binders below were run against T2, human PSMA (Prostate Specific Membrane Antigen, Glutamate Carboxypeptidase II) (human, UniProt Q04609 1-750) (assay: flow cytometry on LNCaP cells).
T2 construct: whole, on cells; the cell line is named under assay; also called FOLH1
Method: Briefly, 50,000 target cells were stained with a dilution series of purified UniAbs™ for 30 minutes at 4° C. Following incubation, the cells were washed twice with flow cytometry buffer (1×PBS, 1% BSA, 0.1% NaN₃) and stained with goat F(ab′)₂ anti-human IgG conjugated to R-phycoerythrin (PE) (Southern Biotech, cat. #2042-09) to detect cell-bound antibodies. After a 20-minute incubation at 4° C., the cells were washed twice with flow cytometry buffer and the mean fluorescence intensity (MFI) was measured by flow cytometry. The MFI of cells stained with secondary antibody alone were used for determination of background signal and binding of each antibody was converted to fold over background. Binding to cynomolgus PSMA positive cells was determined using the same protocol with the following modifications: the target cells were from Freestyle 293-F cells (ThermoFisher R79007) transiently transfected to express the extracellular domain of cynomolgus PSMA. In some experiments EC50 values were calculated using GraphPad Prism 7.
Column 1 indicates the clone ID of the HCAb. Column 2 indicates binding to LNCaP cells measured as fold over the background MFI signal.

T2 sequence (Q04609 whole entry): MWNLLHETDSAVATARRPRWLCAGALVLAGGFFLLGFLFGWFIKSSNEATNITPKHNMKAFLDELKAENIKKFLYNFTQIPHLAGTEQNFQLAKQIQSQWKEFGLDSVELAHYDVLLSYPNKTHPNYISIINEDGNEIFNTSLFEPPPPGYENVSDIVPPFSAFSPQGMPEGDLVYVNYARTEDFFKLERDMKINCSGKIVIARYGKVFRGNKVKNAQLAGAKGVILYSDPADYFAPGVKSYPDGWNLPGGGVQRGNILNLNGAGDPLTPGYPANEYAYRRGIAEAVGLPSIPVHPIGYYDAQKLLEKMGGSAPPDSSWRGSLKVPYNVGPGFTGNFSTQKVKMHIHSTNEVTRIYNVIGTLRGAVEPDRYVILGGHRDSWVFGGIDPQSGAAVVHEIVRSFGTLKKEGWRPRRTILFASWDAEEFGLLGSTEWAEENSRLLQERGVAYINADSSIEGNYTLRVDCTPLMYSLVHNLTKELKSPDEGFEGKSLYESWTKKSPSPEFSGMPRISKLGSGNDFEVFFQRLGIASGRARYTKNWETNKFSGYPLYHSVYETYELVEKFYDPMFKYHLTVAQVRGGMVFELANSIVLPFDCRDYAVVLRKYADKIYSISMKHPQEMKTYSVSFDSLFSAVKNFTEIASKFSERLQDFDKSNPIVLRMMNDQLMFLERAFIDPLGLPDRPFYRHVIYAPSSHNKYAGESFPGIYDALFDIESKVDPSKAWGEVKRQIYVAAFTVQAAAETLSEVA

Binder	fold over the background MFI signal
B1	216 fold over background MFI
B2	25 fold over background MFI
B3	243 fold over background MFI
B4	264 fold over background MFI
B5	282 fold over background MFI
B6	193 fold over background MFI
B7	64 fold over background MFI
B8	13 fold over background MFI
B9	38 fold over background MFI
B10	101 fold over background MFI
B11	80 fold over background MFI
B12	71 fold over background MFI
B13	210 fold over background MFI
B14	55 fold over background MFI
B15	37 fold over background MFI
B16	112 fold over background MFI
B17	200 fold over background MFI
B18	23 fold over background MFI

Binder	fold over the background MFI signal
B19	80 fold over background MFI
B20	84 fold over background MFI
B21	14 fold over background MFI
B22	47 fold over background MFI
B23	68 fold over background MFI
B24	125 fold over background MFI
B25	109 fold over background MFI
B26	22 fold over background MFI
B27	13 fold over background MFI
B28	129 fold over background MFI
B29	138 fold over background MFI
B30	169 fold over background MFI
B31	117 fold over background MFI
B32	102 fold over background MFI
B33	59 fold over background MFI
B34	163 fold over background MFI
B35	87 fold over background MFI

The binders below were run against T1, human B-cell maturation antigen (BCMA) (assay: ELISA protein and cell-binding assays).

Binder	binding result
B36	binds
B37	binds
B38	binds
B39	binds
B40	binds
B41	binds
